Measurements reported in paper PMC5050587, “Enzymatic fine-tuning for 2-(6-hydroxynaphthyl) β-D-xylopyranoside synthesis catalyzed by the recombinant β-xylosidase BxTW1 from Talaromyces amestolkiae” (Microbial Cell Factories, 2016).

How the values were obtained:
[1] = target: recombinant β-xylosidase BxTW1 from Talaromyces amestolkiae (Talaromyces amestolkiae); assay: SEC; Superose 12 HR 10/30 column, molecular mass in native conditions, performed as described previously [20]
[2] = target: T1, β-xylosidase BxTW1 (rBxTW1) (Talaromyces amestolkiae, UniProt A0A0H3W535); assay: competitive product inhibition of pNPX hydrolysis by purified enzyme; format: biochemical
T1 construct: mature BxTW1 without its signal peptide, expressed in Pichia pastoris GS115
T1 sequence (A0A0H3W535 22-797): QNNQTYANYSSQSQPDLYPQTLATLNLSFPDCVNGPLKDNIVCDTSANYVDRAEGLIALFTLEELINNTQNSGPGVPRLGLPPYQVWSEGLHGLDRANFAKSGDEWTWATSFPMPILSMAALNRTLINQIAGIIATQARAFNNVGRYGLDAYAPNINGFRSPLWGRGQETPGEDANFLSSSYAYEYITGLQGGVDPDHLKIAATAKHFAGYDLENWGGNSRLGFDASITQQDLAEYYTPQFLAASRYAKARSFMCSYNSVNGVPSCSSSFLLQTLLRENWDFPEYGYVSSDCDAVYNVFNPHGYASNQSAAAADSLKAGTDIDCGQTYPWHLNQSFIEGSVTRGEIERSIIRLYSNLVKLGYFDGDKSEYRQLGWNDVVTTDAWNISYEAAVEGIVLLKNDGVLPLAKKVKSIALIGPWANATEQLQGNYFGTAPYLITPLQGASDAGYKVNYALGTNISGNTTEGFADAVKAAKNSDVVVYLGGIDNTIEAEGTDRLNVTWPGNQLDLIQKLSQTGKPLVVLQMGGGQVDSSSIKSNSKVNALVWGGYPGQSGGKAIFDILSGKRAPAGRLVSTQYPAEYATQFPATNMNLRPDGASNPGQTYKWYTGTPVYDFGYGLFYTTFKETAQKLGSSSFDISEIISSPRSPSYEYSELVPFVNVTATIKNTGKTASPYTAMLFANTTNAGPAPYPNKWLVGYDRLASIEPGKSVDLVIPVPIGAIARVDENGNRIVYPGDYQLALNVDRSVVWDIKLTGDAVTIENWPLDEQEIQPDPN

[3] = substrate: O=[N+]([O-])c1ccc(O[C@@H]2O[C@@H](CO)[C@H](O)[C@H]2O)cc1; assay: Michaelis-Menten kinetics of purified enzyme (Km); format: biochemical, Talaromyces amestolkiae
[4] = substrate: OC1OC[C@@H](O[C@@H]2OC[C@@H](O[C@@H]3OC[C@@H](O[C@@H]4OC[C@@H](O)[C@H](O)[C@H]4O)[C@H](O)[C@H]3O)[C@H](O)[C@H]2O)[C@H](O)[C@H]1O; assay: Michaelis-Menten kinetics of purified enzyme (Km); format: biochemical, Talaromyces amestolkiae
[5] = substrate: OC1OC[C@@H](O[C@@H]2OC[C@@H](O)[C@H](O)[C@H]2O)[C@H](O)[C@H]1O; assay: Michaelis-Menten kinetics of purified enzyme (Km); format: biochemical, Talaromyces amestolkiae
[6] = substrate: O=[N+]([O-])c1ccc(O[C@@H]2OC[C@H](O)[C@H](O)[C@H]2O)cc1; assay: Michaelis-Menten kinetics of purified enzyme (Km); format: biochemical, Talaromyces amestolkiae
[7] = substrate: O=[N+]([O-])c1ccc(O[C@@H]2OC[C@@H](O)[C@H](O)[C@H]2O)cc1; assay: Michaelis-Menten kinetics of purified enzyme (Km); format: biochemical, Talaromyces amestolkiae
[8] = substrate: OC1OC[C@@H](O[C@@H]2OC[C@@H](O[C@@H]3OC[C@@H](O)[C@H](O)[C@H]3O)[C@H](O)[C@H]2O)[C@H](O)[C@H]1O; assay: Michaelis-Menten kinetics of purified enzyme (Km); format: biochemical, Talaromyces amestolkiae
[9] = substrate: OC1OC[C@@H](O[C@@H]2OC[C@@H](O[C@@H]3OC[C@@H](O[C@@H]4OC[C@@H](O[C@@H]5OC[C@@H](O)[C@H](O)[C@H]5O)[C@H](O)[C@H]4O)[C@H](O)[C@H]3O)[C@H](O)[C@H]2O)[C@H](O)[C@H]1O; assay: Michaelis-Menten kinetics of purified enzyme (Km); format: biochemical, Talaromyces amestolkiae
[10] = substrate: OC1OC[C@@H](O[C@@H]2OC[C@@H](O[C@@H]3OC[C@@H](O[C@@H]4OC[C@@H](O[C@@H]5OC[C@@H](O[C@@H]6OC[C@@H](O)[C@H](O)[C@H]6O)[C@H](O)[C@H]5O)[C@H](O)[C@H]4O)[C@H](O)[C@H]3O)[C@H](O)[C@H]2O)[C@H](O)[C@H]1O; assay: Michaelis-Menten kinetics of purified enzyme (Km); format: biochemical, Talaromyces amestolkiae

“recombinant β-xylosidase BxTW1 from Talaromyces amestolkiae (enzyme)” was tested, and the stoichiometry N [1] was 2.

OC1OC[C@@H](O)[C@H](O)[C@H]1O (stereo partly shown) [xylose] gave a Ki [2] of 1700 ± 300 µM.

B1: β-xylosidase BxTW1 (rBxTW1) (Talaromyces amestolkiae) (protein)
chain: QNNQTYANYSSQSQPDLYPQTLATLNLSFPDCVNGPLKDNIVCDTSANYVDRAEGLIALFTLEELINNTQNSGPGVPRLGLPPYQVWSEGLHGLDRANFAKSGDEWTWATSFPMPILSMAALNRTLINQIAGIIATQARAFNNVGRYGLDAYAPNINGFRSPLWGRGQETPGEDANFLSSSYAYEYITGLQGGVDPDHLKIAATAKHFAGYDLENWGGNSRLGFDASITQQDLAEYYTPQFLAASRYAKARSFMCSYNSVNGVPSCSSSFLLQTLLRENWDFPEYGYVSSDCDAVYNVFNPHGYASNQSAAAADSLKAGTDIDCGQTYPWHLNQSFIEGSVTRGEIERSIIRLYSNLVKLGYFDGDKSEYRQLGWNDVVTTDAWNISYEAAVEGIVLLKNDGVLPLAKKVKSIALIGPWANATEQLQGNYFGTAPYLITPLQGASDAGYKVNYALGTNISGNTTEGFADAVKAAKNSDVVVYLGGIDNTIEAEGTDRLNVTWPGNQLDLIQKLSQTGKPLVVLQMGGGQVDSSSIKSNSKVNALVWGGYPGQSGGKAIFDILSGKRAPAGRLVSTQYPAEYATQFPATNMNLRPDGASNPGQTYKWYTGTPVYDFGYGLFYTTFKETAQKLGSSSFDISEIISSPRSPSYEYSELVPFVNVTATIKNTGKTASPYTAMLFANTTNAGPAPYPNKWLVGYDRLASIEPGKSVDLVIPVPIGAIARVDENGNRIVYPGDYQLALNVDRSVVWDIKLTGDAVTIENWPLDEQEIQPDPN
notes: mature BxTW1 without its signal peptide, expressed in Pichia pastoris GS115
For B1, the Km [3] was 4300 ± 300 µM, the Vmax [3] was 14.9 µmol/min/mg and the kcat [3] was 49.8 s⁻¹. The kcat/Km [3] was 12000 M⁻¹ s⁻¹, the Km [4] was 200 ± 10 µM and the Vmax [4] was 6.34 µmol/min/mg. It also gave a kcat [4] of 21.1 s⁻¹, a kcat/Km [4] of 100000 M⁻¹ s⁻¹ and a Km [5] of 510 ± 30 µM. The Vmax [5] was 26.4 µmol/min/mg, the kcat [5] was 87.9 s⁻¹ and the kcat/Km [5] was 170000 M⁻¹ s⁻¹. For the same molecule, the Km [6] was 1600 ± 100 µM, the Vmax [6] was 8.3 µmol/min/mg and the kcat [6] was 28 s⁻¹. It also gave a kcat/Km [6] of 17000 M⁻¹ s⁻¹, a Km [7] of 200 ± 10 µM and a Vmax [7] of 20.8 µmol/min/mg. The kcat [7] was 69.3 s⁻¹, the kcat/Km [7] was 336000 M⁻¹ s⁻¹ and the Km [8] was 190 ± 10 µM. The Vmax [8] was 9 µmol/min/mg, the kcat [8] was 30 s⁻¹ and the kcat/Km [8] was 160000 M⁻¹ s⁻¹. It also gave a Km [9] of 220 ± 10 µM, a Vmax [9] of 4.48 µmol/min/mg and a kcat [9] of 14.9 s⁻¹. For the same molecule, the kcat/Km [9] was 68000 M⁻¹ s⁻¹, the Km [10] was 210 ± 20 µM and the Vmax [10] was 4.27 µmol/min/mg. The kcat [10] was 14.2 s⁻¹ and the kcat/Km [10] was 69000 M⁻¹ s⁻¹.
